Drawing on publication PMC12611452, this text covers stoichiometry N for one substance.

The assay has as its target PGDH3-mCherry (protease-free, released from PGDH3-mCherry-TEV-mVenus by TEV cleavage) (Arabidopsis thaliana) (UniProt Q9LT69). Description: mass photometry; TwoMP instrument, 5 nM protein in PBS, 60 s movies.

For the substance “PGDH3-mCherry (protease-free, released from PGDH3-mCherry-TEV-mVenus by TEV cleavage) (from UniProt Q9LT69 39-588) (enzyme)”, the stoichiometry N (in general, a count of units in the complex or per binding partner) came out at 2.
